Assay [1] has as its target T1, human 4-1BB, full length, on transfected cells (human, UniProt Q07011 24-255).
T1 construct: whole, on cells; also called CHOK1-h4-1BB
The assay is described as follows: FACS, CHOK1-h4-1BB cells; Ab 10 ug/ml. The procedure, abridged:
(§1)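 CHOK1 stable lines expressing human or monkey 4-1BB were detached with enzyme-free Versene, blocked in 1% goat serum on ice for 30 min and resuspended at 2×10⁶ cells/mL in HBSS with 1% BSA. Purified antibody was bound on ice for 2 h, then cells were fixed in 4% paraformaldehyde and analysed by flow cytometry.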
A general note: In flow cytometry, cells or beads pass a laser one at a time.

For assay [2], the target named is T2, hFc-tagged human 4-1BB extracellular domain protein (4-1BB-hFc) (human, UniProt Q07011 24-186, limits assumed).
T2 construct: also called immunogen A; 4-1BB^ECD-hFc; not shown: human IgG Fc fragment (hFc) of the pCpC vector
Description: ELISA, coated human 4-1BB-hFc; Ab 0.0032 ug/ml. Here is the method: (§2) The purified immunogen A (4-1BB-hFc), monkey 4-1BB-his, and mouse 4-1BB-his obtained in Example 1 [for the preparation method, see step 1 of Example 1, preparation of immunogen A], of which the extracellular domain of monkey-derived 4-1BB protein (purchased from ACRO biosystems), the extracellular domain of mouse 4-1BB protein (purchased from sino biological) or other immune detection point proteins respectively were diluted with PBS to a final concentration of 1.0 μg/mL, then added with […] per well to 96-well ELISA plate. It was sealed with plastic film and incubated at 4° C. overnight. The next day, the plate was washed twice with the plate-washing solution [PBS containing 0.01% (v/v) Tween20] and blocking solution [PBS containing 0.01% (v/v) Tween 20 and 1% (v/v) BSA] was added and blocked at room temperature for 2 hours. The blocking solution was discarded and 100 μl of the purified 4-1BB antibody obtained in Example 2 was added per well. After incubated at 37° C. for 2 hours, the plate was washed 3 times with a plate-washing solution [PBS containing 0.01% (v/v) Tween20]. A secondary antibody (purchased from Sigma) labeled with HRP (horseradish peroxidase) was added, and after incubated at 37° C. for 2 hours, the plate was washed 3 times with a plate-washing solution [PBS containing 0.01% (v/v) Tween20]. 100 μl of TMB substrate was added per well. After incubated for 30 minutes at room temperature, 100 μl of stop buffer (1.0N HCl) was added per well. The A450 nm values were read using an ELISA plate reader (SpectraMax 384plus, Molecular Device).
(In general: ELISA stands for enzyme-linked immunosorbent assay.)

Assay [3] addresses T1, human 4-1BB, full length, on …. The assay is described as follows: FACS on CHOK1-h4-1BB cells, Alexa 488 secondary antibody, average fluorescence intensity. From the text: The pIRES plasmid carrying the full-length gene of monkey-derived […] (the preparation method is the same as the preparation method of the pCpC vector carrying the human-derived IgG Fc fragment (hFc) in “Preparation of immunogen A” of the step (1) in Example 1, in which the database accession number of the amino acid sequence of the extracellular region of monkey 4-1BB protein (Phe19-Thr239) is G7PSE7) was transfected into CHOK1 cell line to obtain CHOK1 stable transfected cell line containing monkey 4-1BB (herein referred to as CHOK1-c4-1BB stable cell line). The CHOK1-h4-1BB stable cell line and the CHOK1-c4-1BB stable cell line were expanded and cultivated to 90% confluence in T-75 cell culture flasks. The medium was exhausted, and washed twice with HBSS buffer (Hanks Balanced Salt Solution, purchased from Invitrogen), and then the cells were treated and collected with enzyme-free cell dissociation solution (Versene solution, purchased from Life Technology). The cells were washed twice with HBSS buffer, and after cell counting, the cells were diluted with HBSS buffer to 2×10⁶ cells per ml, and 1% goat serum blocking solution was added, the percentage being the mass percentage. It was incubated on ice for 30 minutes, and then washed twice with HBSS buffer by centrifugation. The collected cells were suspended in FACS buffer (HBSS containing 1% BSA, the percentage was the mass percentage) to 2×10⁶ cells/mL, and 100 μl per well was added to a 96-well FACS reaction plate. The purified 4-1BB antibody test sample obtained in Example 2 was added, 100 microliters per well and incubated on ice for 2 hours. […] It was washed three times with FACS buffer by centrifugation, and 100 μl of fixative [4% (v/v) paraformaldehyde] per well was added to suspend cells, and washed twice with FACS buffer after 10 minutes by centrifugation. The cells were suspended with 100 microliters of FACS buffer, and the results were detected and analyzed with FACS (FACS Calibur, purchased from BD).

The target of assay [4] is T3, monkey 4-1BB on CHOK1 cells (monkey).
T3 construct: whole, on cells; also called CHOK1-c4-1BB
Description: FACS, CHOK1-c4-1BB cells; Ab 2 ug/ml. The procedure, abridged: as §1

The target of assay [5] is T1, human 4-1BB, full length, on …. Description: FACS, CHOK1-h4-1BB cells; Ab 0.4 ug/ml. In a few lines:
as §1

Assay [6] shares this target. The assay is described as follows: FACS, CHOK1-h4-1BB cells; Ab 0.016 ug/ml. The procedure, abridged:
as §1

The target of assay [7] is T2, hFc-tagged human 4-1BB extracellular …. The assay is described as follows: ELISA: human 4-1BB-hFc coated at 1.0 µg/mL, antibody titrated, HRP secondary antibody, OD450. Here is the method:
as §2

Assay [8] has the same target. Description: ELISA, coated human 4-1BB-hFc; Ab 0.016 ug/ml. As to the method: as §2
Assay [9] has as its target T3, monkey 4-1BB on CHOK1 cells. The assay is described as follows: FACS, CHOK1-c4-1BB cells; Ab 0.016 ug/ml. The procedure, abridged: as §1
Assay [10] addresses T4, monkey 4-1BB-his protein (monkey).
T4 construct: extracellular domain; Bought protein; also called extracellular domain of monkey-derived 4-1BB protein
Description: ELISA, coated monkey 4-1BB-his; Ab 0.0032 ug/ml. Here is the method: as §2

Assay [11] deals with T2, hFc-tagged human 4-1BB extracellular …. The assay is described as follows: ELISA, coated human 4-1BB-hFc; Ab 0.08 ug/ml. Here is the method:
as §2

The target in assay [12] is T4, monkey 4-1BB-his protein. The assay is described as follows: ELISA, coated monkey 4-1BB-his; Ab 0.08 ug/ml. Here is the method: as §2
In assay [13] the target is T3, monkey 4-1BB on CHOK1 cells. Description: FACS, CHOK1-c4-1BB cells; Ab 0.00013 ug/ml. The procedure, abridged:
as §1

In assay [14] the target is T2, hFc-tagged human 4-1BB extracellular …. Description: ELISA, coated human 4-1BB-hFc; Ab 10 ug/ml. Here is the method: as §2

Three molecules from patent US20200347144A1 (SHANGHAI HYAMAB BIOTECH, published 2020) can be followed below.

Positions count from the first letter of the chain named.

T1 sequence (Q07011 24-255): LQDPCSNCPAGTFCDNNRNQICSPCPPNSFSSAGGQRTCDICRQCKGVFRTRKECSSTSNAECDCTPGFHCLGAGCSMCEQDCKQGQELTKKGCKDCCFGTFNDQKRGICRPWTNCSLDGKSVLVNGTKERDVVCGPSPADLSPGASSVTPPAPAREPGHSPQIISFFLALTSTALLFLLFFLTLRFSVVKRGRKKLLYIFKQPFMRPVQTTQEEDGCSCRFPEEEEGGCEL

B1: 258F5A8 (antibody, V domains shown)
VH: QVQLVESGGGVVQPGRSLRLSCAASGFTFSSYGMHWVRQAPGKGLEWVAVIWYDGSNKYYADSVKGRFNISRDNSKNTLYLQMNSLRAEDTAVYYCARGPYLYSSGWYDYYYYGMDVWGQGTTVTVSS
VL: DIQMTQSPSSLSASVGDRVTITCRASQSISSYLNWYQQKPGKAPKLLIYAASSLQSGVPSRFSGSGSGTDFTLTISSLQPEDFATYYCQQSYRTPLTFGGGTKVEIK
The term EC50 (read off the curve) denotes the concentration that produces a half-maximal response. Take B1: the average fluorescence intensity in assay [1] stood at 835 MFI; in assay [4], 112 MFI; in [5], 591 MFI; in assay [6] it was 68 MFI; in assay [9], 9.9 MFI; in [13] it was 2.5 MFI. The OD450 nm in [2] was found to be 0.26 OD450 nm; in assay [8] it was 1.06 OD450 nm; with monkey 4-1BB-his protein [10], 0.08 OD450 nm; in assay [11], 2.47 OD450 nm; in the assay with monkey 4-1BB-his protein [12] it was 0.55 OD450 nm; in assay [14], 2.68 OD450 nm. Besides, the figures for the “EC50 (read off the curve)” value in assay [3] and in assay [7] were roughly 0.2 µg/mL and roughly 0.02 µg/mL, respectively.

B2: 259G10E11 (antibody, V domains shown)
VH: B1 VH with N69T
VL: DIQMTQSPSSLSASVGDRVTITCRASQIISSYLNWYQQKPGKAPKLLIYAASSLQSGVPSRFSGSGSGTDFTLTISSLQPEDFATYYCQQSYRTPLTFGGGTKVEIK
Turning to B2, the average fluorescence intensity in assay [1] was determined as 827 MFI; in [4], 107 MFI; in [5] it was 625 MFI; in assay [6] it was 67.2 MFI; in [9], 9.3 MFI; in assay [13], 2.5 MFI. Also, the OD450 nm came to 0.33 OD450 nm in [2]; 1.29 OD450 nm in [8]; 0.07 OD450 nm in the assay with monkey 4-1BB-his protein [10]; 2.64 OD450 nm in assay [11]; 0.46 OD450 nm with monkey 4-1BB-his protein [12]; 2.8 OD450 nm in assay [14]. For the same molecule, the “EC50 (read off the curve)” value was roughly 0.2 µg/mL in assay [3] and roughly 0.02 µg/mL in [7].

B3: 263A11E3 (antibody, V domains shown)
VH: QVQLQESGPGLVKPSETLSLTCAVSGYSISSGYYWGWIRQPPGKGLEWIGSIYHSGSTSYNPSLRSRVTISVDTSKNQFSLKLSSVTAADTAVYYCARDAGGFDYWGQGTLVTVSS
VL: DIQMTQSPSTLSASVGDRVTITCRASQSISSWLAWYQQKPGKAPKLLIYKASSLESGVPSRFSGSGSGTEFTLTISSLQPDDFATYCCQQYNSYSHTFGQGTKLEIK
Take B3: the average fluorescence intensity in [1] stood at 1780 MFI; in assay [4], 93.5 MFI; in assay [5] it was 1120 MFI; in assay [6], 85.6 MFI; in assay [9], 8 MFI; in assay [13], 2.4 MFI. In addition, the OD450 nm in [2] was found to be 0.3 OD450 nm; in [8], 1.23 OD450 nm; in the assay with monkey 4-1BB-his protein [10], 0.07 OD450 nm; in [11], 2.59 OD450 nm; with monkey 4-1BB-his protein [12], 0.08 OD450 nm; in assay [14] it was 2.75 OD450 nm. In addition, the “EC50 (read off the curve)” value was roughly 0.3 µg/mL in [3] and roughly 0.02 µg/mL in [7].
